Test results as given in patent US20110288011A1, “PEPTIDE THERAPEUTIC CONJUGATES AND USES THEREOF” (priority 2008, published 2011).

System: ob/ob mice
Experiment: Body weight of ob/ob mice treated with recombinant leptin
Type: in vivo
Settings: 0.1 mg/mouse or 0.25 mg/mouse daily
Protocol: As a control, we tested the ability of recombinant leptin to reduce body weight in ob/ob mice using either 0.1 mg/mouse or 0.25 mg/mouse daily.

B1: recombinant leptin: recombinant leptin used as a control in ob/ob mice (protein, UniProt P41160 22-167, looked up)
Leptin: VPIQKVQDDTKTLIKTIVTRINDISHTQSVSAKQRVTGLDFIPGLHPILSLSKMDQTLAVYQQVLTSLPSQNVLQIANDLENLRDLLHLLAFSKSCSLPQTSGLQKPESLDGVLEASLYSTEVVALSRLQGSLQDILQQLDVSPEC
**Q.** For B1, which body weight is on record?
**A.** reduce body weight in these mice in a dose-dependent manner
